Measurements from patent US20120039802A1 (published 2012).

Target: T1, cMet-Fc fusion protein (extracellular domain of the cMet receptor expressed as an Fc-fusion protein) (human, UniProt P08581 25-932)
T1 construct: extracellular domain; also called soluble cMet-Fc-fusion protein; soluble cMet receptor; not shown: Fc part
Experiment: phage ELISA on cMet-Fc, competitor HGF 100 ng/mL
Description: (§1) These assays were conducted using the peptide-displaying phage discovered from the initial selection and screening campaigns using the first generation peptide libraries. Briefly, 96-well plates were coated overnight at 4 C with 0.5 μg/mL of cMet-Fc fusion protein or TRAIL-Fc fusion protein (background). The plates were blocked for 2 hours at 37 C with 3% BSA in PBST. […] This was followed by an addition of 30 μL of peptide-displaying phage overnight culture to each well. The plates were incubated for 2 hours at room temperature, washed with PBST and cMet-binding peptide-displaying phage was detected using an HRP-conjugated anti-M13 antibody.

T1 sequence (P08581 25-932): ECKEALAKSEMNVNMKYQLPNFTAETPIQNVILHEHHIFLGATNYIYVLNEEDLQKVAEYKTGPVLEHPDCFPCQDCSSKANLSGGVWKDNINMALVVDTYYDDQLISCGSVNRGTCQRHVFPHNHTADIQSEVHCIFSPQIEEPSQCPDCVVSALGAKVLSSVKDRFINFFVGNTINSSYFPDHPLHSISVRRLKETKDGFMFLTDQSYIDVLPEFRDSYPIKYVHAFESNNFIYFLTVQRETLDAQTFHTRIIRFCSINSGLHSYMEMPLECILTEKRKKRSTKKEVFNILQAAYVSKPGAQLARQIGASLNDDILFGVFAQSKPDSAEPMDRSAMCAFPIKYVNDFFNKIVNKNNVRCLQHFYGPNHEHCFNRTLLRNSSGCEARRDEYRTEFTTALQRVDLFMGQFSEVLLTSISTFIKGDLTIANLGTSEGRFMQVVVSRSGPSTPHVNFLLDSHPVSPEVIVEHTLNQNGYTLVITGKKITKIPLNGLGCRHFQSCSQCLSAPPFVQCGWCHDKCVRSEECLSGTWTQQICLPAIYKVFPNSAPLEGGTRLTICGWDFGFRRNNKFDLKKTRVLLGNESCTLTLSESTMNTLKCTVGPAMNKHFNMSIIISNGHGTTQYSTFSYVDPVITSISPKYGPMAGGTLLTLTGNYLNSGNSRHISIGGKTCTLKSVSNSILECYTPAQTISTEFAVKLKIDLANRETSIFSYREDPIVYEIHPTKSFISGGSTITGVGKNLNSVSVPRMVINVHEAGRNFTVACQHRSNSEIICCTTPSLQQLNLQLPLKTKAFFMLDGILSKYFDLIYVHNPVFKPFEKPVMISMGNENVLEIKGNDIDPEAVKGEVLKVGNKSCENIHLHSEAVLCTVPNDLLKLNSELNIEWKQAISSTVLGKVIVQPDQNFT

| Binder | % of binding in the absence of HGF |
| --- | --- |
| GSLIICWWSWCDKQAP [567-C08 peptide-displaying phage (SEQ ID NO: 009)] | 85% |
| AGSSPCKGWPTFECYFYGT [552-F01 peptide-displaying phage (SEQ ID NO: 087)] | 56% |
| AGYFHCSGSPWFQCDYYGT [550-G08 peptide-displaying phage (SEQ ID NO: 081)] | 79% |
| AGSIQCVGPPSFECTPYGT [335-D11 peptide-displaying phage (SEQ ID NO: 074)] | 56% |
| AGGWECTGPPWFQCGYYGT [334-C08 peptide-displaying phage (SEQ ID NO: 067)] | 70% |
| AGNWICTGPPSFGCWYHGT [331-G06 peptide-displaying phage (SEQ ID NO: 078)] | 59% |
| AGYWSCAGPPMFMCTWQGT [552-G03 peptide-displaying phage (SEQ ID NO: 079)] | 101% |
| AGPWKCTGPPTFSCIQFGT [548-D08 peptide-displaying phage (SEQ ID NO: 090)] | 97% |
| AGSYWCSGPPTFMCRYEGT [545-B12 peptide-displaying phage (SEQ ID NO: 085)] | 51% |
| AGTWHCAGPPWFTCYMDGT [551-B02 peptide-displaying phage (SEQ ID NO: 069)] | 69% |
| AGYWDCKGPPHFFCEWHGT [552-G11 peptide-displaying phage (SEQ ID NO: 080)] | 55% |
| AGYWHCKGPPHFACEFHGT [331-D03 peptide-displaying phage (SEQ ID NO: 077)] | 64% |
| GSSTICPGTACVDHAP [574-H03 peptide-displaying phage (SEQ ID NO: 008)] | 88% |
| AGYSVCKGYPSFECAFFGT [336-D07 peptide-displaying phage (SEQ ID NO: 075)] | 44% |
| AGSWECTGPPSFHCQWYGT [551-G12 peptide-displaying phage (SEQ ID NO: 070)] | 88% |

Target: T2, human cMet expressed on 3T3 cells (human, UniProt P08581 25-1390)
T2 construct: whole, on cells; cells fixed with glutaraldehyde; also called cell surface-expressed human cMet; 3T3 cells that over-express human cMet
Experiment: whole cell phage ELISA, 3T3 human cMet vs 3T3
Description: Whole cell ELISAs were performed using 3T3 cells that over-express human cMet. […] Briefly, 96-well plates were seeded with 10⁵ cells per well. The plates were centrifuged for 5 minutes at 1600 rpm to pellet the cells. The resulting cell layer was fixed with 0.1% (v/v) glutaraldehyde for 12 minutes at 37 C. […] Peptide-displaying phage also were blocked in the above solution for 1 hour at 37 C. 100 μL of blocked phage was then added to each well and the plates were incubated for 1 hour at room temperature. The plates were washed with PBST. cMet-binding peptide-displaying phage were detected using an HRP-conjugated anti-M13 antibody.

T2 sequence (P08581 25-1390): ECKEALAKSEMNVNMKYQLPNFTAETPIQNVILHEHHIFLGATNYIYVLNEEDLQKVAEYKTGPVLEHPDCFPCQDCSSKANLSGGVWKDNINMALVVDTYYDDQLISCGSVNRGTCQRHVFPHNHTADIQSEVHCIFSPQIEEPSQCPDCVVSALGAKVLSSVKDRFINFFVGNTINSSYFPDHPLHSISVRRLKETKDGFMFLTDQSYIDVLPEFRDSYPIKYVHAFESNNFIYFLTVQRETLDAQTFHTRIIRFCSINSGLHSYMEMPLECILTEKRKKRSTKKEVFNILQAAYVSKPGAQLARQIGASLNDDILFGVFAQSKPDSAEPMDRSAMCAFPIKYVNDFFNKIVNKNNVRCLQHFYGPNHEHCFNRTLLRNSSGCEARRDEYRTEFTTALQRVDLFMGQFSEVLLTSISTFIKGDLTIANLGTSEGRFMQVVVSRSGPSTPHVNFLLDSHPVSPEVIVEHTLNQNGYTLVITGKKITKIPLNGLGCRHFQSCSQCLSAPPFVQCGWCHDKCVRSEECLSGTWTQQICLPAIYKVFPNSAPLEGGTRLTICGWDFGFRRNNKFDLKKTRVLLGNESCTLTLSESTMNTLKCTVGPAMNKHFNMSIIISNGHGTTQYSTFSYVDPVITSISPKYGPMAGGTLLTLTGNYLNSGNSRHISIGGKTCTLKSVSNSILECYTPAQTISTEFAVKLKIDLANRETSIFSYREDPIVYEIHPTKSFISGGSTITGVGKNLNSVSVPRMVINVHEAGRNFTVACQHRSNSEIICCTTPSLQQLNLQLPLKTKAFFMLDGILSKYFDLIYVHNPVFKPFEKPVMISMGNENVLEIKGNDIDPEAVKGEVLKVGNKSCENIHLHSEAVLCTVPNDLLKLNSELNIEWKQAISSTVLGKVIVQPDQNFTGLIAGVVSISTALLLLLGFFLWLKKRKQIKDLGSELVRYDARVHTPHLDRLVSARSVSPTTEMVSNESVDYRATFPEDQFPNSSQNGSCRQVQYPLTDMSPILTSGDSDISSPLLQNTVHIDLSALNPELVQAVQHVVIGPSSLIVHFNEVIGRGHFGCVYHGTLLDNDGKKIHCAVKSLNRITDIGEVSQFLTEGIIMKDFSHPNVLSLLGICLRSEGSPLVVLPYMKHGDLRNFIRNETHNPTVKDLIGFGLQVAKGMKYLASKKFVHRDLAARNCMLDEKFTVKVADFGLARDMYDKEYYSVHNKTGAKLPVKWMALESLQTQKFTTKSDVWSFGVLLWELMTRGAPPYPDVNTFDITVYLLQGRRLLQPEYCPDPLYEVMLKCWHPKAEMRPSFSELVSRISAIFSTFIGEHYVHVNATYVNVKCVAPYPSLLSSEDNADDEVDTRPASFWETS

| Binder | WC ELISA (fold over background) |
| --- | --- |
| GSLIICWWSWCDKQAP [567-C08 peptide-displaying phage (SEQ ID NO: 009)] | 1.27 fold |
| AGSSPCKGWPTFECYFYGT [552-F01 peptide-displaying phage (SEQ ID NO: 087)] | 1.3 fold |
| AGYFHCSGSPWFQCDYYGT [550-G08 peptide-displaying phage (SEQ ID NO: 081)] | 1.4 fold |
| AGSIQCVGPPSFECTPYGT [335-D11 peptide-displaying phage (SEQ ID NO: 074)] | 1.37 fold |
| AGGWECTGPPWFQCGYYGT [334-C08 peptide-displaying phage (SEQ ID NO: 067)] | 1.47 fold |
| AGNWICTGPPSFGCWYHGT [331-G06 peptide-displaying phage (SEQ ID NO: 078)] | 1.4 fold |
| AGYWSCAGPPMFMCTWQGT [552-G03 peptide-displaying phage (SEQ ID NO: 079)] | 1.27 fold |
| AGPWKCTGPPTFSCIQFGT [548-D08 peptide-displaying phage (SEQ ID NO: 090)] | 1.23 fold |
| AGSYWCSGPPTFMCRYEGT [545-B12 peptide-displaying phage (SEQ ID NO: 085)] | 1.27 fold |
| AGTWHCAGPPWFTCYMDGT [551-B02 peptide-displaying phage (SEQ ID NO: 069)] | 1.3 fold |
| AGYWDCKGPPHFFCEWHGT [552-G11 peptide-displaying phage (SEQ ID NO: 080)] | 1.23 fold |
| AGYWHCKGPPHFACEFHGT [331-D03 peptide-displaying phage (SEQ ID NO: 077)] | 1.4 fold |
| GSSTICPGTACVDHAP [574-H03 peptide-displaying phage (SEQ ID NO: 008)] | 1.27 fold |
| AGYSVCKGYPSFECAFFGT [336-D07 peptide-displaying phage (SEQ ID NO: 075)] | 1.33 fold |
| AGSWECTGPPSFHCQWYGT [551-G12 peptide-displaying phage (SEQ ID NO: 070)] | 1.37 fold |

Target: T1, cMet-Fc fusion protein (extracellular …)
Experiment: phage ELISA on cMet-Fc, competitor HGF 500 ng/mL
Description: as §1

| Binder | % of binding in the absence of HGF |
| --- | --- |
| GSLIICWWSWCDKQAP [567-C08 peptide-displaying phage (SEQ ID NO: 009)] | 94% |
| AGSSPCKGWPTFECYFYGT [552-F01 peptide-displaying phage (SEQ ID NO: 087)] | 37% |
| AGYFHCSGSPWFQCDYYGT [550-G08 peptide-displaying phage (SEQ ID NO: 081)] | 58% |
| AGSIQCVGPPSFECTPYGT [335-D11 peptide-displaying phage (SEQ ID NO: 074)] | 37% |
| AGGWECTGPPWFQCGYYGT [334-C08 peptide-displaying phage (SEQ ID NO: 067)] | 57% |
| AGNWICTGPPSFGCWYHGT [331-G06 peptide-displaying phage (SEQ ID NO: 078)] | 51% |
| AGYWSCAGPPMFMCTWQGT [552-G03 peptide-displaying phage (SEQ ID NO: 079)] | 83% |
| AGPWKCTGPPTFSCIQFGT [548-D08 peptide-displaying phage (SEQ ID NO: 090)] | 62% |
| AGSYWCSGPPTFMCRYEGT [545-B12 peptide-displaying phage (SEQ ID NO: 085)] | 42% |
| AGTWHCAGPPWFTCYMDGT [551-B02 peptide-displaying phage (SEQ ID NO: 069)] | 43% |
| AGYWDCKGPPHFFCEWHGT [552-G11 peptide-displaying phage (SEQ ID NO: 080)] | 41% |
| AGYWHCKGPPHFACEFHGT [331-D03 peptide-displaying phage (SEQ ID NO: 077)] | 55% |
| GSSTICPGTACVDHAP [574-H03 peptide-displaying phage (SEQ ID NO: 008)] | 18% |
| AGYSVCKGYPSFECAFFGT [336-D07 peptide-displaying phage (SEQ ID NO: 075)] | 37% |
| AGSWECTGPPSFHCQWYGT [551-G12 peptide-displaying phage (SEQ ID NO: 070)] | 46% |

Target: T1, cMet-Fc fusion protein (extracellular …)
Experiment: phage ELISA, cMet-Fc vs TRAIL-Fc
Description: Protein phage ELISAs using peptide-displaying phage isolates from the various selection campaigns were performed to determine specificity of the peptides for cMet versus an unrelated Fc-fusion protein (TRAIL-Fe). Briefly, 384-well plates were coated overnight at 4 C with 0.5 μg/mL of cMet-Fc fusion protein or TRAIL-Fc fusion protein (background). The plates were blocked for 2 hours 37 C with 3% (w/v) BSA in PBS containing 0.05% (v/v) Tween-20 (PBST). The plates were washed with PBST and 100 μL of peptide-displaying phage were added to each well. The plates were incubated for 2 hours at room temperature and washed with PBST. cMet-binding peptide-displaying phage were detected using an HRP-conjugated anti-M13 antibody.

| Binder | Protein ELISA (fold over background) |
| --- | --- |
| GSLIICWWSWCDKQAP [567-C08 peptide-displaying phage (SEQ ID NO: 009)] | 3.8 fold |
| AGSSPCKGWPTFECYFYGT [552-F01 peptide-displaying phage (SEQ ID NO: 087)] | 4.8 fold |
| AGYFHCSGSPWFQCDYYGT [550-G08 peptide-displaying phage (SEQ ID NO: 081)] | 9.1 fold |
| AGSIQCVGPPSFECTPYGT [335-D11 peptide-displaying phage (SEQ ID NO: 074)] | 6.7 fold |
| AGGWECTGPPWFQCGYYGT [334-C08 peptide-displaying phage (SEQ ID NO: 067)] | 8 fold |
| AGNWICTGPPSFGCWYHGT [331-G06 peptide-displaying phage (SEQ ID NO: 078)] | 4.7 fold |
| AGYWSCAGPPMFMCTWQGT [552-G03 peptide-displaying phage (SEQ ID NO: 079)] | 10.7 fold |
| AGPWKCTGPPTFSCIQFGT [548-D08 peptide-displaying phage (SEQ ID NO: 090)] | 19.5 fold |
| AGSYWCSGPPTFMCRYEGT [545-B12 peptide-displaying phage (SEQ ID NO: 085)] | 17.1 fold |
| AGTWHCAGPPWFTCYMDGT [551-B02 peptide-displaying phage (SEQ ID NO: 069)] | 9 fold |
| AGYWDCKGPPHFFCEWHGT [552-G11 peptide-displaying phage (SEQ ID NO: 080)] | 7.4 fold |
| AGYWHCKGPPHFACEFHGT [331-D03 peptide-displaying phage (SEQ ID NO: 077)] | 5.5 fold |
| GSSTICPGTACVDHAP [574-H03 peptide-displaying phage (SEQ ID NO: 008)] | 3.2 fold |
| AGYSVCKGYPSFECAFFGT [336-D07 peptide-displaying phage (SEQ ID NO: 075)] | 5.8 fold |
| AGSWECTGPPSFHCQWYGT [551-G12 peptide-displaying phage (SEQ ID NO: 070)] | 3.9 fold |
